Measurements published in PMC2581521 (2008).

Molecular target: T1, Chordin (Xenopus laevis, UniProt Q91713)
T1 chain: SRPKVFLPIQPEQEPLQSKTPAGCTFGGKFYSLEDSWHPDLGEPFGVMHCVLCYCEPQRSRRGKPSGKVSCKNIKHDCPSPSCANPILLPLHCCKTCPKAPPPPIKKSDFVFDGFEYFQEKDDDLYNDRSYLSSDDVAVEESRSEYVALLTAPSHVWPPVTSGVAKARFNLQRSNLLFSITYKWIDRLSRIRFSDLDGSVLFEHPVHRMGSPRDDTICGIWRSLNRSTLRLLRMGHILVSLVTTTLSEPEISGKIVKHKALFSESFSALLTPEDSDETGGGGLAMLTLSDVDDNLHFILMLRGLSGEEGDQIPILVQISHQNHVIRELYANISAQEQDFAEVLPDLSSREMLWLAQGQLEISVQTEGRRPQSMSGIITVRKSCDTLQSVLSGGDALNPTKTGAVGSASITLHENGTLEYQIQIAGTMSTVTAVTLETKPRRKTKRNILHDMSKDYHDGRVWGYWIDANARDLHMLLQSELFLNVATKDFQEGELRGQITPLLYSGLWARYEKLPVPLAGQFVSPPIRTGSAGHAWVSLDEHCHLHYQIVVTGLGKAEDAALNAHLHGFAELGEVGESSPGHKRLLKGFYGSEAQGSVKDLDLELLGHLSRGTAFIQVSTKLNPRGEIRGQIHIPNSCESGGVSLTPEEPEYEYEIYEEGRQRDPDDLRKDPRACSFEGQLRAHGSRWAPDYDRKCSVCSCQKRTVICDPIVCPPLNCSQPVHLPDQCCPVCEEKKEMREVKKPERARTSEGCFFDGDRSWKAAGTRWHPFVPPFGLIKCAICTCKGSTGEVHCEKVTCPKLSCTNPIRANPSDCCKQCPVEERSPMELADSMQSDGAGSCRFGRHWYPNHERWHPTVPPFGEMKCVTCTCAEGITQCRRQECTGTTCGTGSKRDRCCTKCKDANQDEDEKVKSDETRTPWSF
Assay: SPR

Kd: 1.37 nM
B1: Crossveinless-2 (protein)
chain: not shown
